Measured values: patent US20180149638A1

Molecular target: pBIND-ASK1N (DNA binding domain fused to ASK1 N-terminal 1-678 aa, CheckMate mammalian two-hybrid system) (Homo sapiens (Human)) (UniProt Q99683)
Assay: cell-based or functional assay

UniProt Q99683, sequence (Q99683 other isoform, or with tags, fused parts or gaps limits assumed, form in doubt): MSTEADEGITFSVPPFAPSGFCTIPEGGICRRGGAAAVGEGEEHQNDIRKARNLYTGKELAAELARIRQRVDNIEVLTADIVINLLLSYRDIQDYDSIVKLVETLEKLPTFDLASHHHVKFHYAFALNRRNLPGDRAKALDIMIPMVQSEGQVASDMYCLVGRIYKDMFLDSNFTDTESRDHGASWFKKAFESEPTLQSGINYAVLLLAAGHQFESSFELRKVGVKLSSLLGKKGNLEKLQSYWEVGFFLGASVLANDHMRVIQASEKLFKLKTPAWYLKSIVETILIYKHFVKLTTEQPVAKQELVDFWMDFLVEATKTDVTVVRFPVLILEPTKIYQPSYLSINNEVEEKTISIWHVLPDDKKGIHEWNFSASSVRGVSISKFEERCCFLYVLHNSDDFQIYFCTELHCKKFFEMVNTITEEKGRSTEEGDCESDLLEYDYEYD

ratio of RLU value of firefly luciferase to RLU value of Renilla luciferase, group A (no peptide): 1.9
Substance: pACT-ASK1N (transcriptional activation domain fused to ASK1 N-terminal 1-678 aa, CheckMate mammalian two-hybrid system) (from UniProt Q99683 1-678)
